Where two headings read alike, the source gives them in different places. Positions of bridges follow the written chain, without caps; N, C: chain ends. Non-standard residues stand in square brackets, D forms with d. Groups on a side chain read outwards from the residue. Primed or numbered codes have the meaning given here. No end group written: not given here. *: point of attachment. PEG 40 kDa″ = 40 kDa polyethylene glycol; Stearoyl = CCCCCCCCCCCCCCCCCC(=O)*; Palmitoyl = CCCCCCCCCCCCCCCC(=O)*; Myristoyl = CCCCCCCCCCCCCC(=O)*; Nle = CCCC[C@H](N)C(=O)O; Orn = NCCC[C@H](N)C(=O)O; Aib = CC(C)(N)C(=O)O
Legend:
Test in all cases: cell-based or functional assay
glucagon receptor [1] = target: T1, glucagon receptor (UniProt P47871 26-477, limits assumed)
T1 sequence (P47871 26-477 limits assumed): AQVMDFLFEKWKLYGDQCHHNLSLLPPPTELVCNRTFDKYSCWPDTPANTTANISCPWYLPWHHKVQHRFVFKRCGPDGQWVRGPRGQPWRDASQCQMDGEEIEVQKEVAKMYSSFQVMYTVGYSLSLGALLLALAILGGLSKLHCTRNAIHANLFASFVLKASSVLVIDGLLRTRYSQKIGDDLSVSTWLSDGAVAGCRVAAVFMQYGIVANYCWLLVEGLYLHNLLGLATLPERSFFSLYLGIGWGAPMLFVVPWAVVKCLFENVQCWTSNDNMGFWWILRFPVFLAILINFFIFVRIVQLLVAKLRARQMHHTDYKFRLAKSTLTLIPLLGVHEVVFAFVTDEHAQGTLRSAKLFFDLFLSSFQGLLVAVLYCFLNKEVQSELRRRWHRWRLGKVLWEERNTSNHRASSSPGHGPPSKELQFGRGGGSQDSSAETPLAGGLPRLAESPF

GLP-1 receptor [2] = target: T2, GLP-1 receptor (UniProt P43220 24-463, limits assumed)
GLP-1 receptor [3] = target: T2, GLP-1 receptor; remark: listed apart in the source
glucagon receptor [4] = target: T1, glucagon receptor; remark: listed apart in the source
glucagon receptor [5] = target: T1, glucagon receptor; remark: listed apart in the source
GIP receptor [6] = target: T3, GIP receptor (UniProt P48546 22-466)
T3 sequence (looked up): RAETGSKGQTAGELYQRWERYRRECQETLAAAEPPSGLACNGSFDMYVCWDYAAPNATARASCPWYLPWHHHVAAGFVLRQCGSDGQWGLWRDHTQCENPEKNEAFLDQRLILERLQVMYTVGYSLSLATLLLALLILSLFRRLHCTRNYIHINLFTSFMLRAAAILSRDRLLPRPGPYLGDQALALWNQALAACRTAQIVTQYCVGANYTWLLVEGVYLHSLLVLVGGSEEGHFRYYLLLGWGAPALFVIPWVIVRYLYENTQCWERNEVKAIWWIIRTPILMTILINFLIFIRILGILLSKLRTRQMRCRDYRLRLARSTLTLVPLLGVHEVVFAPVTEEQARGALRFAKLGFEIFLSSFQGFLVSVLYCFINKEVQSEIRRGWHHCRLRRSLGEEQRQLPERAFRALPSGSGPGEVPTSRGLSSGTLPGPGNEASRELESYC

GLP-1 receptor [7] = target: T2, GLP-1 receptor; remark: listed apart in the source
glucagon receptor [8] = target: T1, glucagon receptor; remark: listed apart in the source
GIP receptor [9] = target: T3, GIP receptor; remark: listed apart in the source
GLP-1 receptor [10] = target: T2, GLP-1 receptor; remark: listed apart in the source
glucagon receptor [11] = target: T1, glucagon receptor; remark: listed apart in the source
glucagon receptor [12] = target: T1, glucagon receptor; remark: listed apart in the source
glucagon receptor [13] = target: T1, glucagon receptor; remark: listed apart in the source
GLP-1 receptor [14] = target: T2, GLP-1 receptor; remark: listed apart in the source
glucagon receptor [15] = target: T1, glucagon receptor; remark: listed apart in the source
GLP-1 receptor [16] = target: T2, GLP-1 receptor; remark: listed apart in the source
glucagon receptor [17] = target: T1, glucagon receptor; remark: listed apart in the source
GLP-1 receptor [18] = target: T2, GLP-1 receptor; remark: listed apart in the source

B1: Peptide dS2K10(C16)E16K20-Gluc Amide (peptide)
peptide: HXQGTFTSDKSKYLDERRAKDFVQWLMNT
modifications: d-Ser at 2; Lys 10 acylated with C16; C-terminal amide
EC50 (glucagon receptor [1]): 76 pM | EC50 (GLP-1 receptor [2]): 41 pM

B2: NLeu3, E16 Gluc-NH2 (peptide)
peptide: HS[Nle]GTFTSDYSKYLDERRAQDFVQWLMNT-NH2
Percent Potency Relative to Native Ligand (GLP-1 receptor [3]): 20.6%

B3: Glucagon (1-29a) Aib2 Lys10-Trp-C16 Aib16 Cys24-40 kD (peptide)
peptide: H[Aib]QGTFTSDK([Trp-Palmitoyl])SKYLD[Aib]RRAQDFVC(PEG 40 kDa)WLMNT-NH2
EC50 (glucagon receptor [4]): 290 pM

B4: mt-345 (peptide)
peptide: HXQGTFTSDYSKYLDEQAAKEFICWLMNGGPSSGAPPPSK
modifications: AIB at 2; Lys 40 acylated with a C14 fatty acyl group
% Relative activity (glucagon receptor [5]): 193% | EC50 (glucagon receptor [5]): 18.3 pM | % Relative activity (GIP receptor [6]): 4.99% | % Relative activity (GLP-1 receptor [7]): 153% | % Relative activity (glucagon receptor [8]): 193% | % Relative activity (GIP receptor [9]): 5% | % Relative activity (GLP-1 receptor [10]): 153%

B5: Peptide 50 (SEQ ID NO: 563) (peptide)
peptide: H[Aib]QGTFTSDK(Palmitoyl)SKYLD[Aib]RRAQDFVQWLMNT-NH2
EC50 (glucagon receptor [11]): 52 pM | EC50 (20% human plasma) (glucagon receptor [11]): 23 pM | EC50 (glucagon receptor [12]): 572 pM

B6: Peptide X (peptide)
peptide: H[Aib]QGTFTSDYSKYLDEQAAKEFICWLMNT
% activity of native glucagon (glucagon receptor [13]): 9.38% | % activity of native GLP-1 (GLP-1 receptor [14]): 202%

B7: Peptide Y-PEG (peptide)
peptide: H[Aib]QGTFTSDYSKYLDEQAAKEFIC([maleimide-PEG 40 kDa″])WLMNT
modifications: lactam 16-20
% activity of native glucagon (glucagon receptor [13]): 8.22% | EC50 (cAMP, CRE-luciferase) (glucagon receptor [13]): 667 pM | % activity of native GLP-1 (GLP-1 receptor [14]): 47.6% | EC50 (cAMP, CRE-luciferase) (GLP-1 receptor [14]): 59 pM

B8: E16 K20-glucagon-NH2 with K10-C16 (peptide)
peptide: HSQGTFTSDK(Palmitoyl)SKYLDERRAKDFVQWLMNT-NH2
EC50 (glucagon receptor [15]): 400 pM | EC50 (GLP-1 receptor [16]): 90 pM | EC50 (glucagon receptor [17]): 236 pM | EC50 (GLP-1 receptor [18]): 125 pM

B9: E16 K20-glucagon-NH2 with K10-W-C18 (peptide)
peptide: HSQGTFTSDK([Trp-Stearoyl])SKYLDERRAKDFVQWLMNT-NH2
EC50 (glucagon receptor [15]): 50 pM | EC50 (glucagon receptor [17]): 44 pM

B10: Orn3, E16 Gluc-NH2 (peptide)
peptide: HS[Orn]GTFTSDYSKYLDERRAQDFVQWLMNT-NH2
Percent Potency Relative to Native Ligand (GLP-1 receptor [3]): 0.1%

B11: mt-347 (peptide)
peptide: H[Aib]QGTFTSDYSKYLD[Aib]QAAKEFICWLMNGGPSSGAPPPSK(Myristoyl)-NH2
modifications: N-terminus assumed
SMILES: CCCCCCCCCCCCCC(=O)NCCCC[C@H](NC(=O)[C@H](CO)NC(=O)[C@@H]1CCCN1C(=O)[C@@H]1CCCN1C(=O)[C@@H]1CCCN1C(=O)[C@H](C)NC(=O)CNC(=O)[C@H](CO)NC(=O)[C@H](CO)NC(=O)[C@@H]1CCCN1C(=O)CNC(=O)CNC(=O)[C@H](CC(N)=O)NC(=O)[C@H](CCSC)NC(=O)[C@H](CC(C)C)NC(=O)[C@H](Cc1c[nH]c2ccccc12)NC(=O)[C@H](CS)NC(=O)[C@@H](NC(=O)[C@H](Cc1ccccc1)NC(=O)[C@H](CCC(=O)O)NC(=O)[C@H](CCCCN)NC(=O)[C@H](C)NC(=O)[C@H](C)NC(=O)[C@H](CCC(N)=O)NC(=O)C(C)(C)NC(=O)[C@H](CC(=O)O)NC(=O)[C@H](CC(C)C)NC(=O)[C@H](Cc1ccc(O)cc1)NC(=O)[C@H](CCCCN)NC(=O)[C@H](CO)NC(=O)[C@H](Cc1ccc(O)cc1)NC(=O)[C@H](CC(=O)O)NC(=O)[C@H](CO)NC(=O)[C@@H](NC(=O)[C@H](Cc1ccccc1)NC(=O)[C@@H](NC(=O)CNC(=O)[C@H](CCC(N)=O)NC(=O)C(C)(C)NC(=O)[C@@H](N)Cc1c[nH]cn1)[C@@H](C)O)[C@@H](C)O)[C@@H](C)CC)C(N)=O
% Relative activity (glucagon receptor [5]): 111% | EC50 (glucagon receptor [5]): 31.7 pM | % Relative activity (GIP receptor [6]): 0.7% | EC50 (GIP receptor [6]): 383 pM | % Relative activity (GLP-1 receptor [7]): 67.1% | EC50 (GLP-1 receptor [7]): 8.2 pM | % Relative activity (glucagon receptor [8]): 111% | % Relative activity (GIP receptor [9]): 0.7% | % Relative activity (GLP-1 receptor [10]): 67%
